Measured values as given in PMC7617879 (2022).

Biological target: MMP-14 catalytic domain (Homo sapiens, UniProt P50281)
Assay: enzyme inhibition assay

B1: N-TIMP2D-Cys-PEG N-terminal domain (protein)
chain: CSCSPVHPQQAFCNADVVIRAKAVSEKEVDSGNDIYGNPIKRIQYEIKQIKMFKGPEKDIEFIYTAPSSAVCGVSLDVGGKKEYLIAGKAEGDGKMHITLCDFIVPWDTLSTTQKKSLNHRYQMGC
modifications: PEGylated
Ki: 0.18 nM
